# B1: CRISP2 (cysteine-rich secretory protein 2), C-terminal polyhistidine tag [modified: RED-tris-NTA fluorescent label on the His tag; RED-tris-NTA fluorescent label on the His tag] [human] / prostate secretory protein of … (parent)
# chain 1: KDPAFTALLTTQLQVQREIVNKHNELRKAVSPPASNMLKMEWSREVTTNAQRWANKCTLQHSDPEDRKTSTRCGENLYMSSDPTSWSSAIQSWYDEILDFVYGVGPKSPNAVVGHYTQLVWYSTYQVGCGIAYCPNQDSLKYYYVCQYCPAGNNMNRKNTPYQQGTPCAGCPDDCDKGLCTNSCQYQDLLSNCDSLKNTAGCEHELLKEKCKATCLCENKIY
# chain 2: SCYFIPNEGVPGDSTRKCMDLKGNKHPINSEWQTDNCETCTCYETEISCCTLVSTPVGYDKDNCQRIFKKEDCKYIVVEKKDPKKTCSVSEWII
# Variants of: B1
# Assay: microscale thermophoresis
# Conditions: with prostate secretory protein of 94 amino acids (PSP94), measurements in triplicates, PSP94 titrated (x axis PSP94 [nM])
row,Variant,Kd
1,chain 1 KDPAFTALLTTQLQVQREIVNKHNELRKAVSPPASNMLKMEWSREVTTNAQRWANKCTLQHSDPEDRKTSTRCGEPGYMSSDPTSWSSAIQSWYDEILDFVYGVGPKSPNAVVGHYTQLVWYSTYQVGCGIAYCPNQDSLKYYYVCQYCPAGNNMNRKNTPYQQGTPCAGCPDDCDKGLCTNSCQYQDLLSNCDSLKNTAGCEHELLKEKCKATCLCENKIY [chain 1 N76P L77G],4 nM

# — publication PMC8857485, “Prostate secretory protein 94 inhibits sterol binding and export by the mammalian CAP protein CRISP2 in a calcium-sensitive manner” (The Journal of Biological Chemistry, 2022)
